This is an account of results in article PMC7671035 (mAbs, 2020).

Broadly, the Kd is the constant that tells how readily two partners part at equilibrium. Low values mean higher affinity, high ones lower affinity.

Assay [1] concerns the target human CXCL1 (Homo sapiens, UniProt P09341).
The target in assay [2] is human CXCL12 (Homo sapiens, UniProt P48061). Description: ELISA. In general terms: In an ELISA, binding on a coated surface is turned into a signal by an enzyme label.
The target of assay [3] is human CXCL10 (Homo sapiens (Human)., UniProt P02778). Description: ELISA.
Sequence of human CXCL10 (P02778 22-98): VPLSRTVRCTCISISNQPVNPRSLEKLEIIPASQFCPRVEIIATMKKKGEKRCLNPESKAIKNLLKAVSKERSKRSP
The target in assay [4] is human CXCL17 (Homo sapiens, UniProt Q6UXB2). Put plainly: ELISA.
Sequence of human CXCL17 (Q6UXB2 22-119): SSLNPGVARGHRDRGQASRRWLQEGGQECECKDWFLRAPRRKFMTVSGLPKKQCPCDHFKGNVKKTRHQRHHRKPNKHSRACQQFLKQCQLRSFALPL
For assay [5], the target named is human CXCL16 (Homo sapiens, UniProt Q9H2A7). Put plainly: ELISA.
Sequence of human CXCL16 (Q9H2A7 30-254): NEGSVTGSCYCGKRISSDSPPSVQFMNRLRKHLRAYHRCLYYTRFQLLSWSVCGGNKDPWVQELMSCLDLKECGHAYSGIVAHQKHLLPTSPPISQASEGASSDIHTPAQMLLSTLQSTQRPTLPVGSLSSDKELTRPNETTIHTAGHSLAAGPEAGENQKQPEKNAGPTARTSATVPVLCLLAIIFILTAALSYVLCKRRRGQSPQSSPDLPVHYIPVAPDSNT
Assay [6] deals with human CXCL13 (Homo sapiens (Human)., UniProt O43927). Put plainly: ELISA.
Sequence of human CXCL13 (O43927 23-109): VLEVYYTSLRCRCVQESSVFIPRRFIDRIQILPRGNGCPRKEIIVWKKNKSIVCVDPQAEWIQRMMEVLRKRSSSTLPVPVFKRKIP
Assay [7] concerns the target human CXCL14 (Homo sapiens, UniProt O95715). Description: ELISA.
The target of assay [8] is human CXCL4 (Homo sapiens (Human)., UniProt P02776). Description: ELISA.
Sequence of human CXCL4 (P02776 32-101): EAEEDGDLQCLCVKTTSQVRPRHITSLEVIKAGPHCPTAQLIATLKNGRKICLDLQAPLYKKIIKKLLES
In assay [9] the target is mouse CXCL1 (Mus musculus, UniProt P12850). Put plainly: SPR. On the technique in general: Surface plasmon resonance follows binding to a sensor surface in real time, without labels.
Sequence of mouse CXCL1 (P12850 25-96): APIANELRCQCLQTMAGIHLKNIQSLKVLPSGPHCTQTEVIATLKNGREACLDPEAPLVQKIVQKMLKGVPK
Assay [10] concerns the target rat CXCL2 (Rattus norvegicus, UniProt P30348). Put plainly: SPR.
Assay [11] concerns the target mouse CXCL3 (Mus musculus, UniProt Q6W5C0). Put plainly: SPR.
The target in assay [12] is mouse CXCL2 (Mus musculus, UniProt P10889). Put plainly: SPR.
Sequence of mouse CXCL2 (P10889 28-100): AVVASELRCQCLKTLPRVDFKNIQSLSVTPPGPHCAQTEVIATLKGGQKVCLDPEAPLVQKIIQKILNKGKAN
Assay [13] deals with rat CXCL1 (Rattus norvegicus, UniProt P14095). Put plainly: SPR.
Sequence of rat CXCL1 (P14095 25-96): as the sequence (P12850 25-96) above, with I3V, M15V, L20F, L29M, S31P, L58M counted along it
In assay [14] the target is rat CXCL3 (Rattus norvegicus, UniProt Q10746). Put plainly: SPR.
Sequence of rat CXCL3 (Q10746 33-101): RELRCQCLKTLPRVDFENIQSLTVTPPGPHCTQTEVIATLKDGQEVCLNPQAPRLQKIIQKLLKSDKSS

Sequence of human CXCL12 (P48061 22-93): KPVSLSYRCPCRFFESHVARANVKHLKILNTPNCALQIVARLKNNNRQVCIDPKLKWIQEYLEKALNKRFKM
Sequence of human CXCL14 (O95715 35-111): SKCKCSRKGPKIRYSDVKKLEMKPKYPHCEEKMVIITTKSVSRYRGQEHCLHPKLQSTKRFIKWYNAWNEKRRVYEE
Sequence of human CXCL1 (P09341 35-107): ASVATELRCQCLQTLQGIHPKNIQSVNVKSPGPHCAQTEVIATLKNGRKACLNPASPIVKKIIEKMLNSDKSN
Sequence of mouse CXCL3 (Q6W5C0 32-100): as the sequence (Q10746 33-101) above, with R1S, K9N, N18T, A52G, K57I, Q60K, L62I, D66G counted along it
Sequence of rat CXCL2 (P30348 32-100): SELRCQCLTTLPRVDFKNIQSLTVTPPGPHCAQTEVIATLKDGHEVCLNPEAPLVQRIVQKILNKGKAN

B1: 1581 (antibody, V domains shown)
VH: QVHVKQSGAELVKPGASVRLSCTASGYTFTSYWMHWVKQRPGQGLEWIGNINPNSGSANYNEKFKSKATLTVDTSSSTAYMQLSSLTSEDSAVYYCTREGPYSYYPVRVYYGLDYWGQGTSVTVSS
VL: DIVLTQSPATLSVTPGDRVSLSCRASQSISNNLHWYQQKSHESPRLLIKYTSQSVSGIPSRFSASGSGTDFTLSINSVETEDFGMYFCQQSNSWPLTFGAGTKLELK
As to B1, the binding result in assay [1] is reported as “binds”.

B2: LY3041658 (antibody, V domains shown)
VH: QVQLVQSGAEVKKPGASVKVSCKASGYEFTSYWIHWVRQAPGQGLEWMGNISPNSGSANYNEKFKSRVTMTRDTSTSTVYMELSSLRSEDTAVYYCAREGPYSYYPSREYYGSDLWGQGTLVTVSS
VL: EIVLTQSPATLSLSPGERATLSCRASQSISNNLHWYQQKPGQAPRLLIYYTSRSVSGIPARFSGSGSGTDFTLTISSLEPEDFAVYYCGQNNEWPEVFGGGTKVEIK
In the case of B2, the binding result in assay [2], in assay [3], in [4], in [5], in assay [6] and in assay [7] was “no binding (tested: 20 µg/mL)” throughout. Further, in assay [8], the binding result was “no binding (tested: 20 µg/mL)”. The Kd in assay [9], in assay [10], in assay [11], in [12], in assay [13] and in assay [14] was approximately 0.2 nM in each case.
